Consider one molecule from US20110091460A1 (REGENTS OF THE UNIVERSITY OF MINNESOTA, published 2011).

The assay has as its target epidermal growth factor receptor (EGFR) (human, UniProt P00533 25-1210). The experiment in a line: cell-based or functional assay.

B1: EGF4 KDEL (ligand)
chain: MNSDSECPLSHDGYCLHDGVCMYIEALDKYACNCVVGYIGERCQYRDLKWWELRPSGQAGAAASESLFVSNHAYMGLTSQLLPPLFFLLACAGNFVHGHKCDITLQEIIKTLNSLTEQKTLCTELTVTDIFAASKNTTEKETFCRAATVLRQFYSHHEKDTRCLGATAQQFHRHKQLIRFLKRLDRNLWGLAGLNSCPVKEANQSTLENFLERLKTIMREKYSKCSSEASGGPEPEGGSLAALTAHQACHLPLETFTRHRQPRGWEQLEQCGYPVQRLVALYLAARLSWNQVDQVIRNALASPGSGGDLGEAIREQPEQARLALTLAAAESERFVRQGTGNDEAGAANADVVSLTCPVAAGECAGPADSGDALLERNYPTGAEFLGDGGDVSFSTRGTQNWTVERLLQAHRQLEERGYVFVGYHGTFLEAAQSIVFGGVRARSQDLDAIWRGFYIAGDPALAYGYAQDQEPDARGRIRNGALLRVYVPRSSLPGFYRTSLTLAAPEAAGEVERLIGHPLPLRLDAITGPEEEGGRLETILGWPLAERTVVIPSAIPTDPRNVGGDLDPSSIPDKEQAISALPDYASQPGKPPKDEL
On to B1, for which the “IC50, killing of MDA-MB-231 cells (3H-thymidine uptake assay)” value amounted to 2 pM.
